The data set deals with the molecule itself. Kind of data set: native gel or EMSA; increasing amounts of purified protein (0-200 pmol) incubated with 2 pmol in vitro transcribed 3'UTR fragments of C/EBPβ mRNA; 25 mM Tris, 150 mM NaCl, 2.5 mM MgCl2, 2.5 mM DTT, 0.5 mM EDTA, 0.025 mM ZnCl2, pH 8.3; on ice 20 min; 0.8% agarose gel in TAE; oligomers read from heavier protein-RNA complexes. (Mobility shift assays separate free from complexed probe on a gel.)

B1: Full length human MCPIP1 (D141N) recombinant protein (enzyme, UniProt Q5D1E8 1-599, looked up)
chain: MSGPCGEKPVLEASPTMSLWEFEDSHSRQGTPRPGQELAAEEASALELQMKVDFFRKLGYSSTEIHSVLQKLGVQADTNTVLGELVKHGTATERERQTSPDPCPQLPLVPRGGGTPKAPNLEPPLPEEEKEGSDLRPVVINGSNVAMSHGNKEVFSCRGILLAVNWFLERGHTDITVFVPSWRKEQPRPDVPITDQHILRELEKKKILVFTPSRRVGGKRVVCYDDRFIVKLAYESDGIVVSNDTYRDLQGERQEWKRFIEERLLMYSFVNDKFMPPDDPLGRHGPSLDNFLRKKPLTLEHRKQPCPYGRKCTYGIKCRFFHPERPSCPQRSVADELRANALLSPPRAPSKDKNGRRPSPSSQSSSLLTESEQCSLDGKKLGAQASPGSRQEGLTQTYAPSGRSLAPSGGSGSSFGPTDWLPQTLDSLPYVSQDCLDSGIGSLESQMSELWGVRGGGPGEPGPPRAPYTGYSPYGSELPATAAFSAFGRAMGAGHFSVPADYPPAPPAFPPREYWSEPYPLPPPTSVLQEPPVQSPGAGRSPWGRAGSLAKEQASVYTKLCGVFPPHLVEAVMGRFPQLLDPQQLAAEILSYKSQHPSE
notes: Monocyte chemoattractant protein-1-induced protein 1 (MCPIP1, Regnase-1), human, full length; point mutation D141N in the PIN domain abolishes RNase activity; also called Regnase-1 D141N; source: recombinant, purified
Take B1: the binding result was “binds”.

Source of the values: article PMC5362230, “MCPIP1, alias Regnase-1 binds and cleaves mRNA of C/EBPβ” (PLoS ONE, 2017).
